pKd: −log10 of the molar value. Several values for one entry are separate records, joined by “and”; a condition that tells them apart may be missing. Equal entries are not always repeated.

The first series concerns DnaA-his (Bacillus subtilis). The series is described as follows: IDAP-Seq (affinity pull-down). Conditions: 550 nM DnaA, 40 mM HEPES-KOH pH 7.6, 150 mM K-glutamate, 2.5 mM ATP or ADP, 10 mM Mg acetate, 0.2 mM DTT, 50 ug/ml BSA, 0.1 mM EDTA, 20% glycerol, 4% sucrose, 0.2 mg/ml ….
yhdF internal came in with a binding signal (fold ATP/ADP DNA recovered) of 24.

The same series, now with this note: 40 mM HEPES-KOH pH 7.6, 150 mM K-glutamate, 2.5 mM ATP or ADP, 10 mM Mg acetate, 0.2 mM DTT, 50 ug/ml BSA, 0.1 mM EDTA, 20% glycerol, 4% sucrose, 0.2 mg/ml ….
By pKd is commonly meant −log10 of the Kd, conventionally taken in molar units. Lower therefore signals a large Kd. For the substance codV internal (peak 9), the pKd is 5.96 and 5.72.

For the substance gcp/ydiF downstream (peak 4), the pKd is 6.82 and 6.48. Take ggaA internal (peak 18): the negative logarithm of the Kd (pKd) was 5.57 and 5.32. Consider oriC dnaA-dnaN (peak 2), for which the pKd is 6.80 and 6.52. Regarding oriC upstream of dnaA (peak 1), the pKd is 6.68 and 6.48. The same measure, in the same setting: the value for rlmCD internal (peak 20) was 5.12 and 5.17; that for rplB internal (peak 10) was 5.85 and 5.92; that for trmE upstream / jag downstream (peak 5) was 6.48 and 6.37. Consider yhcA internal (peak 12), for which the pKd was 5.44 and 5.55. As for yhcN internal (peak 15), the pKd was 4.71 and 5.16. As for “ynaI downstream / xynP upstream (peak 11)”, the pKd is 5.70 and 5.52.

Consider yopH internal (peak 19), for which the pKd was 5.31 and 5.30. Consider yorF internal (peak 13), for which the pKd was 5.70 and 5.52. Turning to yqeG/sda upstream (peak 7), the pKd is 6.82 and 6.29. With yutJ internal (peak 16), the negative-log Kd (pKd) was 5.60 and 5.54. In the case of yvmC/yvmB upstream (peak 14), the pKd was 5.66 and 5.36.

Take ywcI/vpr upstream (peak 3): the pKd is 6.89 and 6.77. For “ywlC upstream / ywlB downstream (peak 6)”, the pKd was 6.60 and 6.35. Same read-out and setting: the value for “yydA upstream / yyzF downstream (peak 8)” was 6.80 and 6.48; that for yydH internal (peak 17) was 5.62 and 5.34.

Values taken from publication PMC4447404.
